The Human Domainome abundance scans (Beltran et al. 2025)
± gives the uncertainty stated by the source.

B1: Membrane-associated guanylate kinase, WW and PDZ domain-containing protein 2, residues 296 to 340; numbered along this chain, Q86UL8 (parent)
chain: EDNEEPDPLPDNWEMAYTEKGEVYFIDHNTKTTSWLDPRLAKKAK
B2: Zinc finger MYM-type protein 3, residues 405 to 444; numbered along this chain, Q14202 (parent)
chain: DATRCSICQKTGEVLHEVSNGSVVHRLCSDSCFSKFRANK

Variants of: B1
Assay: abundance fitness (aPCA) (normalised: wild type 0, dead -1); higher = more abundant; growth selection in yeast, the domain comes from the species named
Details: Homo sapiens
H28A gave an abundance fitness of -0.417 ± 0.045.
With H28Y the abundance fitness was -0.525 ± 0.079.
H28F showed an abundance fitness of -0.267 ± 0.18.
H28V gave an abundance fitness of -0.407 ± 0.063.
In the case of H28P, the abundance fitness is reported as -0.652 ± 0.065.
Variant R39V has an abundance fitness of -0.52 ± 0.045.
With R39H the abundance fitness was -0.419 ± 0.13.
Work on R39L yielded an abundance fitness of -0.63 ± 0.046.
R39G showed an abundance fitness of -0.46 ± 0.06.
Variant R39S has an abundance fitness of -0.395 ± 0.044.
In the case of R39N, the abundance fitness is reported as -0.289 ± 0.15.
R39K showed an abundance fitness of -0.411 ± 0.058.
With R39Q the abundance fitness was -0.497 ± 0.054.
With R39T the abundance fitness was -0.366 ± 0.1.
Work on R39Y yielded an abundance fitness of -0.769 ± 0.15.
R39A showed an abundance fitness of -0.514 ± 0.049.
R39W showed an abundance fitness of -0.607 ± 0.059.
Work on R39P yielded an abundance fitness of -0.633 ± 0.069.
R39C gave an abundance fitness of -0.478 ± 0.08.
With R39M the abundance fitness was -0.599 ± 0.056.
Variant T32F has an abundance fitness of -0.843 ± 0.37.
For T32S, the abundance fitness was -0.08 ± 0.064.
Variant T32N has an abundance fitness of -0.353 ± 0.088.
Work on T32R yielded an abundance fitness of -0.269 ± 0.05.
For T32V, the abundance fitness was -0.111 ± 0.045.
T32K gave an abundance fitness of -0.303 ± 0.12.
With T32W the abundance fitness was -0.325 ± 0.073.
In the case of T32H, the abundance fitness is reported as -0.434 ± 0.063.
With T32C the abundance fitness was 0.007 ± 0.11.
T32Q gave an abundance fitness of -0.199 ± 0.067.
Work on T32M yielded an abundance fitness of -0.071 ± 0.069.
Work on K31V yielded an abundance fitness of -0.473 ± 0.048.
For K31M, the abundance fitness was -0.008 ± 0.058.
In the case of K31W, the abundance fitness is reported as -0.2 ± 0.058.
With K31P the abundance fitness was -0.675 ± 0.076.
With K31S the abundance fitness was -0.114 ± 0.054.
For K31I, the abundance fitness was -0.498 ± 0.079.
Work on K31T yielded an abundance fitness of -0.355 ± 0.071.
K31C showed an abundance fitness of -0.024 ± 0.055.
In the case of K31L, the abundance fitness is reported as -0.155 ± 0.048.
For K31H, the abundance fitness was 0.103 ± 0.11.
With K31E the abundance fitness was -0.08 ± 0.043.
Variant K31D has an abundance fitness of -0.38 ± 0.091.
K31Y gave an abundance fitness of -0.235 ± 0.11.
Variant K31G has an abundance fitness of -0.074 ± 0.038.
For K31R, the abundance fitness was 0.005 ± 0.039.
With K31Q the abundance fitness was 0.013 ± 0.056.
K20W gave an abundance fitness of -0.267 ± 0.06.
K20R showed an abundance fitness of -0.032 ± 0.042.
K20T showed an abundance fitness of -0.063 ± 0.06.
Work on K20Q yielded an abundance fitness of 0.018 ± 0.055.
For K20P, the abundance fitness was -0.353 ± 0.068.
For K20S, the abundance fitness was 0.002 ± 0.075.
K20V showed an abundance fitness of -0.075 ± 0.044.
G21K gave an abundance fitness of -0.163 ± 0.084.
Work on G21Q yielded an abundance fitness of -0.047 ± 0.055.
Work on G21S yielded an abundance fitness of -0.208 ± 0.069.
Variant G21Y has an abundance fitness of -0.337 ± 0.13.
G21D gave an abundance fitness of -0.169 ± 0.076.
With G21L the abundance fitness was -0.329 ± 0.084.
In the case of G21R, the abundance fitness is reported as -0.174 ± 0.049.
For G21C, the abundance fitness was -0.26 ± 0.07.
In the case of G21M, the abundance fitness is reported as -0.152 ± 0.079.
For G21V, the abundance fitness was -0.975 ± 0.072.
G21F gave an abundance fitness of -0.33 ± 0.086.
Variant G21I has an abundance fitness of -0.865 ± 0.25.
Variant G21W has an abundance fitness of -0.593 ± 0.091.
With G21P the abundance fitness was -0.709 ± 0.16.
G21H showed an abundance fitness of -0.081 ± 0.14.
For G21E, the abundance fitness was -0.14 ± 0.054.
For A44V, the abundance fitness was -0.009 ± 0.064.
For A44E, the abundance fitness was 0.07 ± 0.064.
A44R showed an abundance fitness of -0.076 ± 0.056.
A44W gave an abundance fitness of -0.118 ± 0.087.
Work on A44L yielded an abundance fitness of -0.111 ± 0.063.
Variant A41F has an abundance fitness of -0.113 ± 0.085.
In the case of A41G, the abundance fitness is reported as 0.138 ± 0.12.
In the case of A41R, the abundance fitness is reported as -0.058 ± 0.077.
A41L showed an abundance fitness of -0.297 ± 0.29.
P38V gave an abundance fitness of -0.979 ± 0.26.
For V23L, the abundance fitness was -0.062 ± 0.072.
V23E gave an abundance fitness of -0.038 ± 0.046.
V23Q gave an abundance fitness of 0.14 ± 0.077.
In the case of V23P, the abundance fitness is reported as -0.038 ± 0.099.
V23W gave an abundance fitness of -0.295 ± 0.05.
For V23G, the abundance fitness was -0.088 ± 0.066.
I26T showed an abundance fitness of -0.733 ± 0.35.
With I26L the abundance fitness was -0.089 ± 0.068.
Work on I26S yielded an abundance fitness of -0.677 ± 0.084.
With I26V the abundance fitness was 0.01 ± 0.069.
Variant I26Q has an abundance fitness of -0.259 ± 0.11.
With I26D the abundance fitness was -1.15 ± 0.16.
I26C gave an abundance fitness of -0.258 ± 0.093.
For I26R, the abundance fitness was -0.379 ± 0.056.
I26W gave an abundance fitness of -0.691 ± 0.1.
I26A gave an abundance fitness of -0.521 ± 0.073.
For I26F, the abundance fitness was -0.549 ± 0.17.
I26E gave an abundance fitness of -0.585 ± 0.077.
I26H gave an abundance fitness of -0.618 ± 0.077.
For I26M, the abundance fitness was 0.023 ± 0.16.
D37P gave an abundance fitness of -0.456 ± 0.064.
Work on D37M yielded an abundance fitness of -0.533 ± 0.071.
Variant D37G has an abundance fitness of -0.51 ± 0.047.
D37H gave an abundance fitness of -0.623 ± 0.2.
Work on D37K yielded an abundance fitness of -0.246 ± 0.065.
For D37A, the abundance fitness was -0.431 ± 0.042.
D37S showed an abundance fitness of -0.456 ± 0.041.
With D37Y the abundance fitness was -0.697 ± 0.13.
For D37W, the abundance fitness was -0.671 ± 0.045.
For D37R, the abundance fitness was -0.152 ± 0.039.
For D37N, the abundance fitness was -0.184 ± 0.4.
D37E gave an abundance fitness of -0.569 ± 0.073.
D37V showed an abundance fitness of -0.595 ± 0.048.
Work on D37L yielded an abundance fitness of -0.699 ± 0.042.
With D37I the abundance fitness was -0.832 ± 0.075.
In the case of D37F, the abundance fitness is reported as -0.846 ± 0.14.
In the case of D37T, the abundance fitness is reported as -0.675 ± 0.055.
In the case of D37Q, the abundance fitness is reported as -0.607 ± 0.087.
For K42C, the abundance fitness was 0.097 ± 0.077.
Work on K42A yielded an abundance fitness of 0.085 ± 0.051.
Work on K42V yielded an abundance fitness of 0.079 ± 0.093.
Work on K42E yielded an abundance fitness of 0.035 ± 0.062.
K42R gave an abundance fitness of 0.021 ± 0.046.
Work on K42P yielded an abundance fitness of 0.128 ± 0.066.
In the case of K42Y, the abundance fitness is reported as -0.033 ± 0.11.
With K42D the abundance fitness was -0.05 ± 0.18.
K42W gave an abundance fitness of 0.089 ± 0.094.
Work on K42L yielded an abundance fitness of 0.046 ± 0.22.
K42M showed an abundance fitness of 0.011 ± 0.071.
Variant K42T has an abundance fitness of -0.148 ± 0.15.
In the case of K42G, the abundance fitness is reported as 0.014 ± 0.046.
Work on K42N yielded an abundance fitness of 0.032 ± 0.18.
Work on T30M yielded an abundance fitness of -0.388 ± 0.34.
For T30S, the abundance fitness was 0.122 ± 0.075.
Work on T30E yielded an abundance fitness of -0.156 ± 0.067.
With T30C the abundance fitness was -0.185 ± 0.061.
In the case of T30G, the abundance fitness is reported as -0.256 ± 0.037.
Work on T30Q yielded an abundance fitness of -0.155 ± 0.079.
With T30V the abundance fitness was -0.386 ± 0.049.
With T30L the abundance fitness was -0.221 ± 0.058.
T30A showed an abundance fitness of -0.107 ± 0.042.
With T30D the abundance fitness was -0.324 ± 0.088.
In the case of T30F, the abundance fitness is reported as -0.575 ± 0.13.
Variant T30P has an abundance fitness of -1.17 ± 0.076.
Variant T30R has an abundance fitness of -0.183 ± 0.038.

Variants of: B2
Assay: as above
Details: Homo sapiens
DWTRCSICQKTGEVLHEVSNGSVVHRLCSDSCFSKFRANK [A2W] gave an abundance fitness of -0.204 ± 0.08.
DATRCSICQKTGEVLHEVSNGMVVHRLCSDSCFSKFRANK [S22M] gave an abundance fitness of 0.021 ± 0.068.
In the case of DATRCSICMKTGEVLHEVSNGSVVHRLCSDSCFSKFRANK [Q9M], the abundance fitness is reported as -0.123 ± 0.08.
For DATRCSICQKTGEVLHEVSNGSVVHRLCSDSCYSKFRANK [F33Y], the abundance fitness was -0.094 ± 0.1.
In the case of DATRCSICQKTGEVLHEVSAGSVVHRLCSDSCFSKFRANK [N20A], the abundance fitness is reported as -0.068 ± 0.056.
In the case of DATRCSICQKTGEVLHEVSNGSVVHRLCSDSCFSKFLANK [R37L], the abundance fitness is reported as -0.304 ± 0.058.
In the case of DATRCSICQKTGEVLHEVSNGSVVHRLCSRSCFSKFRANK [D30R], the abundance fitness is reported as -0.231 ± 0.056.
DATRCSICQKTGPVLHEVSNGSVVHRLCSDSCFSKFRANK [E13P] showed an abundance fitness of -0.236 ± 0.079.
Variant DATRCSICQKTGEVLHEVSNGSVVHRLCSDSCFSKFRRNK [A38R] has an abundance fitness of -0.199 ± 0.052.
DATRCSLCQKTGEVLHEVSNGSVVHRLCSDSCFSKFRANK [I7L] showed an abundance fitness of -0.146 ± 0.054.
DATRCSICQKTGEVLHEVSNGSVVHRLCGDSCFSKFRANK [S29G] showed an abundance fitness of -0.277 ± 0.054.
Variant DATRCSICQKTGECLHEVSNGSVVHRLCSDSCFSKFRANK [V14C] has an abundance fitness of -0.453 ± 0.087.
